# Test results taken from paper PMC3140484.
# Tests used:
# [1] = tested on: CopR (CgtR9) response regulator, preincubated with acetylphosphate (Corynebacterium glutamicum ATCC 13032); experiment: EMSA; settings: 50 mM Tris-HCl pH 7.5, 50 mM KCl, 10 mM MgCl2, 0.5 mM EDTA, 10% glycerol, room temperature 30 min; 50 mM acetylphosphate preincubation (60 min) for P2; DNA …
# [2] = tested on: CopR (CgtR9) response regulator, unphosphorylated (Corynebacterium glutamicum ATCC 13032); experiment: EMSA; settings: unphosphorylated; apparent Kd; 50 mM Tris-HCl pH 7.5, 50 mM KCl, 10 mM MgCl2, 0.5 mM EDTA, 10% glycerol, room temperature 30 min; 50 mM acetylphosphate preincubation (60 min) for P2; DNA …
substance,measurement,setting,value
"copR promoter Kd probe, 90 bp",Kd,[1],400 nM
same,Kd,[2],2300 nM
